In article PMC12227774 one finds Kd data, which are given here for two molecules.

One may read the Kd as a measure of binding affinity in units of concentration. Higher therefore signals a looser complex.

The target in data set [1] is YBX3 CSD (human, UniProt P16989 82-174). Briefly: BLI. Background: BLI is a label-free optical method that tracks binding on a fibre tip over time.
Data set [2] has as its target YBX1 CSD (human, UniProt P67809 48-159). Briefly: BLI.

Sequence of YBX1 CSD (P67809 48-159): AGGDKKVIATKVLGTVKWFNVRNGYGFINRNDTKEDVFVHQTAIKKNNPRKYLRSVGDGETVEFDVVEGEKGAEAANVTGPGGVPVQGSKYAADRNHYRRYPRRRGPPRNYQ
Sequence of YBX3 CSD (P16989 82-174): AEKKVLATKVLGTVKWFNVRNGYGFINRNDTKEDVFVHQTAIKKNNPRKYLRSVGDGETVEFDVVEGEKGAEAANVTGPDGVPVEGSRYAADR

As to GGAGGCCACCUCUCCAAGGGCUUCU (structured_RNA, m5C at position 12 (NSUN6-methylated)) [FURIN-25nt-m5C], the results for the Kd in data set [1] and in data set [2] were 45 nM and 214 nM, respectively.

Consider GGAGGCCACCUCUCCAAGGGCUUCU (structured_RNA, none) [FURIN-25nt], for which the Kd worked out at 87.5 nM in data set [1] and 346 nM in data set [2].
